From paper PMC10786891, “Massively parallel profiling of RNA-targeting CRISPR-Cas13d”

T1: EsCas13d, nuclease-dead (Eubacterium siraeum, UniProt B0MS50, R295A;H300A;R849A;H854A)
T1 sequence: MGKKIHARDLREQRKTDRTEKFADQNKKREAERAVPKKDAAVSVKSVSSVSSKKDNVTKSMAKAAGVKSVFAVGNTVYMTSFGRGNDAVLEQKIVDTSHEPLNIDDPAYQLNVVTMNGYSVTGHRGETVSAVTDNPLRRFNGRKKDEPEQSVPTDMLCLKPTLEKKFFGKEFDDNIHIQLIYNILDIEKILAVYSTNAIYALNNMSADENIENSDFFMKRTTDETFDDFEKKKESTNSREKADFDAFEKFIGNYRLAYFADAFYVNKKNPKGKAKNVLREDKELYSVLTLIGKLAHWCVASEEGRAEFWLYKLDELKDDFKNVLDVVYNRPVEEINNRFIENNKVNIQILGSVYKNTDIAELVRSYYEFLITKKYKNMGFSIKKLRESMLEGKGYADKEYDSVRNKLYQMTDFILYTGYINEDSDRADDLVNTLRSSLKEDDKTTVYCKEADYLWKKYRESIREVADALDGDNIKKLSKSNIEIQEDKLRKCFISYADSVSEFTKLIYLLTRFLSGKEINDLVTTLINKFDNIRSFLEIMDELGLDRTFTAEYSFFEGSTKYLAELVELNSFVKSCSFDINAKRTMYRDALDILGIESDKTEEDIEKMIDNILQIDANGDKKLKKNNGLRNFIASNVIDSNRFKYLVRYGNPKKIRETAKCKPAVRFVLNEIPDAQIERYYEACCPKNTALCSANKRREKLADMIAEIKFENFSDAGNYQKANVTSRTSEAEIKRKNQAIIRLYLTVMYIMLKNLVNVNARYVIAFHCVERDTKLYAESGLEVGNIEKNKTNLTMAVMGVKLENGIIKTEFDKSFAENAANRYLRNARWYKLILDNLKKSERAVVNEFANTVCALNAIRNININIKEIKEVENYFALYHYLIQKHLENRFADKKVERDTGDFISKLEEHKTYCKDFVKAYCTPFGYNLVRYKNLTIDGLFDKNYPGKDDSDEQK


target: T1, EsCas13d, nuclease-dead; experiment: crRNA (strand 1, pre-loaded); Mg2+; 40 mM Tris-HCl pH 7.5, 150 mM NaCl, 6 mM MgCl2, 1 mM DTT, 0.1% Tween-20, 0.2 mg/ml BSA; 25 C; 10 min per concentration, then washed; details: tags: His6-TwinStrep-SUMO cleaved; N-terminal SNAP kept (SNAP-Surface 488); label: 3' end held by stalled T7 RNA polymerase

| Binder | Kd [nM] |
| --- | --- |
| target 1 insA 3' of 13,insC 3' of 10 (mixed) RNA 1: CACCCGUGCAAAAAUGCAGGGGUCUAAAACUGAGCGGAUAACCUCUCUAUGG RNA 2: GGGAAUGGAUCCACAUCUACGAAUUCGUACCAUAGAGAGAGUUCAUCCGCUCACCGAGAUCGGAAGAGCACACGU | 9.2 ± 0.9 |
| target 1 C21U,C22U (mixed) RNA 1: CACCCGUGCAAAAAUGCAGGGGUCUAAAACUGAGCGGAUAACCUCUCUAUGG RNA 2: GGGAAUGGAUCCACAUCUACGAAUUCGUAUUAUAGAGAGGUUAUCCGCUCACCGAGAUCGGAAGAGCACACGU | 29 ± 4 |
| target 1 insU 3' of 22,insA 3' of 19 (mixed) RNA 1: CACCCGUGCAAAAAUGCAGGGGUCUAAAACUGAGCGGAUAACCUCUCUAUGG RNA 2: GGGAAUGGAUCCACAUCUACGAAUUCGUACUCAUAAGAGAGGUUAUCCGCUCACCGAGAUCGGAAGAGCACACGU | 80 ± 14 |
| target 2 MT 5'PFS AUU 3'PFS CGC (mixed) RNA 1: CACCCGUGCAAAAUUGCAGGGGUCUAAAACCUUCUCCAAAUUGUUUCAUCCU RNA 2: GGGAAUGGAUCCACAUCUACGAAUUCAUUAGGAUGAAACAAUUUGGAGAAGCGCAGAUCGGAAGAGCACACGU | 7.8 ± 0.6 |
| target 2 MT 5'PFS UAG 3'PFS AGC (mixed) RNA 1: CACCCGUGCAAAAUUGCAGGGGUCUAAAACCUUCUCCAAAUUGUUUCAUCCU RNA 2: GGGAAUGGAUCCACAUCUACGAAUUCUAGAGGAUGAAACAAUUUGGAGAAGAGCAGAUCGGAAGAGCACACGU | 1.91 ± 0.21 |
| target 2 MT 5'PFS GUA 3'PFS CCG (mixed) RNA 1: CACCCGUGCAAAAUUGCAGGGGUCUAAAACCUUCUCCAAAUUGUUUCAUCCU RNA 2: GGGAAUGGAUCCACAUCUACGAAUUCGUAAGGAUGAAACAAUUUGGAGAAGCCGAGAUCGGAAGAGCACACGU | 9.6 ± 0.6 |
| target 2 MT 5'PFS GGG 3'PFS UUA (mixed) RNA 1: CACCCGUGCAAAAUUGCAGGGGUCUAAAACCUUCUCCAAAUUGUUUCAUCCU RNA 2: GGGAAUGGAUCCACAUCUACGAAUUCGGGAGGAUGAAACAAUUUGGAGAAGUUAAGAUCGGAAGAGCACACGU | 14.9 ± 1.7 |
| target 2 MT 5'PFS CAU 3'PFS AAA (mixed) RNA 1: CACCCGUGCAAAAUUGCAGGGGUCUAAAACCUUCUCCAAAUUGUUUCAUCCU RNA 2: GGGAAUGGAUCCACAUCUACGAAUUCCAUAGGAUGAAACAAUUUGGAGAAGAAAAGAUCGGAAGAGCACACGU | 4.2 ± 0.7 |
| target 2 MT 5'PFS AUC 3'PFS ACU (mixed) RNA 1: CACCCGUGCAAAAUUGCAGGGGUCUAAAACCUUCUCCAAAUUGUUUCAUCCU RNA 2: GGGAAUGGAUCCACAUCUACGAAUUCAUCAGGAUGAAACAAUUUGGAGAAGACUAGAUCGGAAGAGCACACGU | ~41 |
| target 2 MT 5'PFS AUC 3'PFS CAU (mixed) RNA 1: CACCCGUGCAAAAUUGCAGGGGUCUAAAACCUUCUCCAAAUUGUUUCAUCCU RNA 2: GGGAAUGGAUCCACAUCUACGAAUUCAUCAGGAUGAAACAAUUUGGAGAAGCAUAGAUCGGAAGAGCACACGU | 78 ± 27 |
| target 2 MT 5'PFS CAU 3'PFS CAG (mixed) RNA 1: CACCCGUGCAAAAUUGCAGGGGUCUAAAACCUUCUCCAAAUUGUUUCAUCCU RNA 2: GGGAAUGGAUCCACAUCUACGAAUUCCAUAGGAUGAAACAAUUUGGAGAAGCAGAGAUCGGAAGAGCACACGU | 3.25 ± 0.3 |
| target 2 MT 5'PFS UAG 3'PFS AGG (mixed) RNA 1: CACCCGUGCAAAAUUGCAGGGGUCUAAAACCUUCUCCAAAUUGUUUCAUCCU RNA 2: GGGAAUGGAUCCACAUCUACGAAUUCUAGAGGAUGAAACAAUUUGGAGAAGAGGAGAUCGGAAGAGCACACGU | 2.74 ± 0.24 |
| target 2 MT 5'PFS UUG 3'PFS UCU (mixed) RNA 1: CACCCGUGCAAAAUUGCAGGGGUCUAAAACCUUCUCCAAAUUGUUUCAUCCU RNA 2: GGGAAUGGAUCCACAUCUACGAAUUCUUGAGGAUGAAACAAUUUGGAGAAGUCUAGAUCGGAAGAGCACACGU | 27.6 ± 3.4 |
| target 2 MT 5'PFS CAU 3'PFS AAU (mixed) RNA 1: CACCCGUGCAAAAUUGCAGGGGUCUAAAACCUUCUCCAAAUUGUUUCAUCCU RNA 2: GGGAAUGGAUCCACAUCUACGAAUUCCAUAGGAUGAAACAAUUUGGAGAAGAAUAGAUCGGAAGAGCACACGU | 4.4 ± 0.7 |
| target 2 MT 5'PFS CAC 3'PFS CCU (mixed) RNA 1: CACCCGUGCAAAAUUGCAGGGGUCUAAAACCUUCUCCAAAUUGUUUCAUCCU RNA 2: GGGAAUGGAUCCACAUCUACGAAUUCCACAGGAUGAAACAAUUUGGAGAAGCCUAGAUCGGAAGAGCACACGU | ~33 |
| target 2 MT 5'PFS CAU 3'PFS AAC (mixed) RNA 1: CACCCGUGCAAAAUUGCAGGGGUCUAAAACCUUCUCCAAAUUGUUUCAUCCU RNA 2: GGGAAUGGAUCCACAUCUACGAAUUCCAUAGGAUGAAACAAUUUGGAGAAGAACAGAUCGGAAGAGCACACGU | 4.2 ± 0.6 |
| target 2 MT 5'PFS AUC 3'PFS CAG (mixed) RNA 1: CACCCGUGCAAAAUUGCAGGGGUCUAAAACCUUCUCCAAAUUGUUUCAUCCU RNA 2: GGGAAUGGAUCCACAUCUACGAAUUCAUCAGGAUGAAACAAUUUGGAGAAGCAGAGAUCGGAAGAGCACACGU | 80 ± 40 |
| target 2 MT 5'PFS UUG 3'PFS UCA (mixed) RNA 1: CACCCGUGCAAAAUUGCAGGGGUCUAAAACCUUCUCCAAAUUGUUUCAUCCU RNA 2: GGGAAUGGAUCCACAUCUACGAAUUCUUGAGGAUGAAACAAUUUGGAGAAGUCAAGAUCGGAAGAGCACACGU | ~70 |
| target 2 MT 5'PFS CAC 3'PFS CCC (mixed) RNA 1: CACCCGUGCAAAAUUGCAGGGGUCUAAAACCUUCUCCAAAUUGUUUCAUCCU RNA 2: GGGAAUGGAUCCACAUCUACGAAUUCCACAGGAUGAAACAAUUUGGAGAAGCCCAGAUCGGAAGAGCACACGU | 25 ± 10 |
| target 2 MT 5'PFS AAA 3'PFS UAC (mixed) RNA 1: CACCCGUGCAAAAUUGCAGGGGUCUAAAACCUUCUCCAAAUUGUUUCAUCCU RNA 2: GGGAAUGGAUCCACAUCUACGAAUUCAAAAGGAUGAAACAAUUUGGAGAAGUACAGAUCGGAAGAGCACACGU | ~6.7 |
| target 2 MT 5'PFS CAC 3'PFS CCA (mixed) RNA 1: CACCCGUGCAAAAUUGCAGGGGUCUAAAACCUUCUCCAAAUUGUUUCAUCCU RNA 2: GGGAAUGGAUCCACAUCUACGAAUUCCACAGGAUGAAACAAUUUGGAGAAGCCAAGAUCGGAAGAGCACACGU | 4.5 ± 1.2 |
| target 2 MT 5'PFS UAG 3'PFS AGA (mixed) RNA 1: CACCCGUGCAAAAUUGCAGGGGUCUAAAACCUUCUCCAAAUUGUUUCAUCCU RNA 2: GGGAAUGGAUCCACAUCUACGAAUUCUAGAGGAUGAAACAAUUUGGAGAAGAGAAGAUCGGAAGAGCACACGU | 2.53 ± 0.33 |
| target 2 MT 5'PFS GGG 3'PFS UUU (mixed) RNA 1: CACCCGUGCAAAAUUGCAGGGGUCUAAAACCUUCUCCAAAUUGUUUCAUCCU RNA 2: GGGAAUGGAUCCACAUCUACGAAUUCGGGAGGAUGAAACAAUUUGGAGAAGUUUAGAUCGGAAGAGCACACGU | 48 ± 12 |
| target 2 MT 5'PFS AGG 3'PFS AGU (mixed) RNA 1: CACCCGUGCAAAAUUGCAGGGGUCUAAAACCUUCUCCAAAUUGUUUCAUCCU RNA 2: GGGAAUGGAUCCACAUCUACGAAUUCAGGAGGAUGAAACAAUUUGGAGAAGAGUAGAUCGGAAGAGCACACGU | 4.04 ± 0.32 |
| target 2 MT 5'PFS GGG 3'PFS UUC (mixed) RNA 1: CACCCGUGCAAAAUUGCAGGGGUCUAAAACCUUCUCCAAAUUGUUUCAUCCU RNA 2: GGGAAUGGAUCCACAUCUACGAAUUCGGGAGGAUGAAACAAUUUGGAGAAGUUCAGAUCGGAAGAGCACACGU | 42 ± 15 |
| target 2 MT 5'PFS GAC 3'PFS UGC (mixed) RNA 1: CACCCGUGCAAAAUUGCAGGGGUCUAAAACCUUCUCCAAAUUGUUUCAUCCU RNA 2: GGGAAUGGAUCCACAUCUACGAAUUCGACAGGAUGAAACAAUUUGGAGAAGUGCAGAUCGGAAGAGCACACGU | 14.4 ± 2.7 |
| target 2 MT 5'PFS AUC 3'PFS ACA (mixed) RNA 1: CACCCGUGCAAAAUUGCAGGGGUCUAAAACCUUCUCCAAAUUGUUUCAUCCU RNA 2: GGGAAUGGAUCCACAUCUACGAAUUCAUCAGGAUGAAACAAUUUGGAGAAGACAAGAUCGGAAGAGCACACGU | ~70 |
| target 2 MT 5'PFS GAC 3'PFS UGA (mixed) RNA 1: CACCCGUGCAAAAUUGCAGGGGUCUAAAACCUUCUCCAAAUUGUUUCAUCCU RNA 2: GGGAAUGGAUCCACAUCUACGAAUUCGACAGGAUGAAACAAUUUGGAGAAGUGAAGAUCGGAAGAGCACACGU | 12.9 ± 2 |
